Consider two substances from PMC10665668.

Broadly, the stoichiometry N is a count of units in the complex or per binding partner.

The target in assay [1] is class II sulfofructose-1-phosphate (SFP) aldolase from Hafnia paralvei (Hafnia paralvei). Briefly: SEC-MALS. On the technique in general: SEC sorts molecules by how far they enter the pores of the column.
Assay [2] concerns the target class II sulfofructose-1-phosphate (SFP) aldolase from Yersinia aldovae (Yersinia aldovae). Briefly: SEC-MALS.

Consider “class II sulfofructose-1-phosphate (SFP) aldolase from Hafnia paralvei (enzyme)”, for which the stoichiometry N in assay [1] was found to be 4. Take “class II sulfofructose-1-phosphate (SFP) aldolase from Yersinia aldovae (enzyme)”: the stoichiometry N in assay [2] was determined as 4.
